Laboratory results as given in FireProtDB (doi:10.1021/bi9929958).

B1: Superoxide dismutase [Mn], mitochondrial, P04179 (parent)
chain: MLSRAVCGTSRQLAPVLGYLGSRQKHSLPDLPYDYGALEPHINAQIMQLHHSKHHAAYVNNLNVTEEKYQEALAKGDVTAQIALQPALKFNGGGHINHSIFWTNLSPNGGGEPKGELLEAIKRDFGSFDKFKEKLTAASVGVQGSGWGWLGFNKERGHLQIAACPNQDPLQGTTGLIPLLGIDVWEHAYYLQYKNVRPDYLKAIWNVINWENVTERYMACKK

Variants of: B1
Details: Homo sapiens; pH 7.8; Thermal; DSC; Potassium phosphate 20 mM; reversible: yes; structure 1N0J; whole UniProt chain shown

## MLSRAVCGTSRQLAPVLGYLGSRQKHSLPDLPYDYGALEPHINAQIMQLHHSKHHAAYVNNLNVTEEKYQEALAKGDVTAQIALQPALKFNGGGHINHSIFWTNLSPNGGGEPKGELLEAIKRDFGSFDKFKEKLTAASVGVQGSGWGWLGFNKERGHLQIAACPNEDPLQGTTGLIPLLGIDVWEHAYYLQYKNVRPDYLKAIWNVINWENVTERYMACKK [Q167E]
  Tm: 103 °C
  change of melting temperature, mutant - wild type (higher = more stable): 14.1 °C

## MLSRAVCGTSRQLAPVLGYLGSRQKHSLPDLPYDYGALEPHINAQIMQLHHSKHHAAYVNNLNVTEEKYQEALAKGDVTAQIALQPALKFNGGGHINHSIFWTNLSPNGGGEPKGELLEAIKRDFGSFDKFKEKLTAASVGVQGSGWGWLGFNKERGHLQIAACPNHDPLQGTTGLIPLLGIDVWEHAYYLQYKNVRPDYLKAIWNVINWENVTERYMACKK [Q167H]
  Tm: 88.9 °C
  change of melting temperature, mutant - wild type (higher = more stable): 0 °C

## MLSRAVCGTSRQLAPVLGYLGSRQKHSLPDLPYDYGALEPHINAQIMQLHHSKHHAAYVNNLNVTEEKYQEALAKGDVTAQIALQPALKFNGGGHINHSIFWTNLSPNGGGEPKGELLEAIKRDFGSFDKFKEKLTAASVGVQGSGWGWLGFNKERGHLQIAACPNSDPLQGTTGLIPLLGIDVWEHAYYLQYKNVRPDYLKAIWNVINWENVTERYMACKK [Q167S]
  Tm: 94.9 °C
  change of melting temperature, mutant - wild type (higher = more stable): 6 °C

## MLSRAVCGTSRQLAPVLGYLGSRQKHSLPDLPYDYGALEPHINAQIMQLHHSKHHAAYVNNLNVTEEKYQEALAKGDVTAQIALQPALKFNGGGHINHSIFWTNLSPNGGGEPKGELLEAIKRDFGSFDKFKEKLTAASVGVQGSGWGWLGFNKERGHLQIAACPNVDPLQGTTGLIPLLGIDVWEHAYYLQYKNVRPDYLKAIWNVINWENVTERYMACKK [Q167V]
  Tm: 68.2 °C
  change of melting temperature, mutant - wild type (higher = more stable): -20.7 °C

## MLSRAVCGTSRQLAPVLGYLGSRQKHSLPDLPYDYGALEPHINAQIMQLHHSKHHAAYVNNLNVTEEKYQEALAKGDVTAQIALQPALKFNGGGHINHSIFWTNLSPNGGGEPKGELLEAIKRDFGSFDKFKEKLTAASVGVQGSGWGWLGFNKERGHLQIAACPNADPLQGTTGLIPLLGIDVWEHAYYLQYKNVRPDYLKAIWNVINWENVTERYMACKK [Q167A]
  Tm: 79.8 °C
  change of melting temperature, mutant - wild type (higher = more stable): -9.1 °C
